This note sets out measurements from patent US20210206865A1.

For this assay, the target named is monkey BCMA-MMH (monkey BCMA with C-terminal myc-myc-hexahistidine tag) (monkey). The experiment in a line: SPR Biacore, 25 C, mAb captured via anti-hFc. A general note: In SPR one partner is held on a chip, and binding of the other changes the refractive index at the surface.
Chain of monkey BCMA-MMH (monkey BCMA with C-terminal myc-myc-hexahistidine tag) (monkey) (chain, as listed by the source limits assumed): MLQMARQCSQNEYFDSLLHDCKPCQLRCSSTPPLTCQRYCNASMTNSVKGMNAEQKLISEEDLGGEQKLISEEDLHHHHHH

B1: mAb16747 (REGN4515) (antibody, V domains shown)
VH: QVQLVESGGGLVKPGGSLRLSCAASGFTFSDYYISWIRQAPGKGLEWVSYISSSGSSIKYADSVKGRFTISRDNAKNSLYLQMNSLRAEDTAVYYCAREGGNYGMDVWGQGTTVTVSS
VL: DIQMTQSPSSVSASVGDRVTITCRASQGINNWLVWYQQKPGKAPKLLIYAATSLQSGVPSRFSGSGSGTDFTLTISSLQPEDFATYYCQQANSFPPTFGQGTKLEIK
In turn, B1 returned a 90 nM mfBCMA.mmh Bind (RU) of 1.9 RU.

B2: mAb16732 (REGN4514) (antibody, V domains shown)
VH: EVQLVESGGGLVQPGRSLRLSCAASGFTFDDYAMHWVRQAPGKGLEWVSGISWNSGNMGYADSVKGRFTISRDNAKNSLFLQMHSLRAEDTAFYYCAKVRLTAFDFWGQGTLVTVSS
VL: DIQMTQSPSSLSASVGDRVTITCRTSQSIGNYLNWFQQKPGKAPKLLIYTASSLQNGVPSRFTGSGSGTDFTLTISSLQPEDFVIYYCQQSFSTPYTFGQGTKLEIK
Take B2: the 90 nM mfBCMA.mmh Bind (RU) came to 1.1 RU.
